Data taken from PMC6914384.
One block for each substance: values may come before it.

Experiments:
[1] = molecular target: p300 BRP module (bromodomain-RING-PHD), residues 1048-1282 (UniProt Q09472); test: ITC
[2] = molecular target: pIRF3 (IRF3 1-427 phosphorylated in vitro by TBK1) (UniProt Q14653); test: SEC
[3] = molecular target: pSTAT1ΔN (136-748), Tyr701-phosphorylated (UniProt P42224); test: SEC
[4] = molecular target: pSTAT1ΔNC (136-713), Tyr701-phosphorylated (UniProt P42224); test: SEC

p300 BRP module (bromodomain-RING-PHD), residues 1048-1282, sequence (Q09472 1048-1282): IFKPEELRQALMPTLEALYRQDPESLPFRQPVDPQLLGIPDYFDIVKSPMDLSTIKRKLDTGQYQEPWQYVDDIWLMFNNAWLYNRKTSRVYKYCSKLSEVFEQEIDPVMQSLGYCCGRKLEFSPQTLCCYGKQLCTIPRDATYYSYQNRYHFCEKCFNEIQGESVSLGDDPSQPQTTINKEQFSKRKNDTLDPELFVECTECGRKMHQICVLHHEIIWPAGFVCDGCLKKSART

- Kd [1]: 90 µM
- stoichiometry N [1]: 1.01
Substance: H4 K8acK12ac (4-24) peptide

- stoichiometry N [2]: 2
Substance: pIRF3 (IRF3 1-427 phosphorylated in vitro by TBK1) (from UniProt Q14653 1-427) (natural protein)

- stoichiometry N [3]: 2
Substance: pSTAT1ΔN (136-748), Tyr701-phosphorylated (from UniProt P42224 136-748) (domain or fragment)

- stoichiometry N [4]: 2
Substance: pSTAT1ΔNC (136-713), Tyr701-phosphorylated (from UniProt P42224 136-713) (domain or fragment)
